The results in this text go back to publication PMC12667445, “Targeting RBM10‐Repressed RORB Activity in Liquid Condensates Inhibits Lysosomal Biogenesis and Neuroblastoma Progression via Affecting NF‐κB Signaling” (Advanced Science, 2025).

The target in this assay is T1, recombinant full‐length MBP‐tagged RBM10 (human, UniProt P98175 1-930).
T1 construct: RBM10 (variant 1 is the form found in NB cells), full length; Printed domain limits: RRM1 129-209, ZF1 212-242, RRM2 300-384, ZF2 759-784, G patch 858-904; The construct and its expression host are not described in the main text; They may be in the Supporting Information; source: recombinant, purified
Put plainly: co-IP; purified recombinant GST-tagged RORB and MBP-tagged RBM10, full-length or truncated; western blot. The following applies: both partners purified. For orientation: A western blot detects proteins with antibodies after separation by electrophoresis.

T1 sequence (P98175 whole entry, the tested form may be a part): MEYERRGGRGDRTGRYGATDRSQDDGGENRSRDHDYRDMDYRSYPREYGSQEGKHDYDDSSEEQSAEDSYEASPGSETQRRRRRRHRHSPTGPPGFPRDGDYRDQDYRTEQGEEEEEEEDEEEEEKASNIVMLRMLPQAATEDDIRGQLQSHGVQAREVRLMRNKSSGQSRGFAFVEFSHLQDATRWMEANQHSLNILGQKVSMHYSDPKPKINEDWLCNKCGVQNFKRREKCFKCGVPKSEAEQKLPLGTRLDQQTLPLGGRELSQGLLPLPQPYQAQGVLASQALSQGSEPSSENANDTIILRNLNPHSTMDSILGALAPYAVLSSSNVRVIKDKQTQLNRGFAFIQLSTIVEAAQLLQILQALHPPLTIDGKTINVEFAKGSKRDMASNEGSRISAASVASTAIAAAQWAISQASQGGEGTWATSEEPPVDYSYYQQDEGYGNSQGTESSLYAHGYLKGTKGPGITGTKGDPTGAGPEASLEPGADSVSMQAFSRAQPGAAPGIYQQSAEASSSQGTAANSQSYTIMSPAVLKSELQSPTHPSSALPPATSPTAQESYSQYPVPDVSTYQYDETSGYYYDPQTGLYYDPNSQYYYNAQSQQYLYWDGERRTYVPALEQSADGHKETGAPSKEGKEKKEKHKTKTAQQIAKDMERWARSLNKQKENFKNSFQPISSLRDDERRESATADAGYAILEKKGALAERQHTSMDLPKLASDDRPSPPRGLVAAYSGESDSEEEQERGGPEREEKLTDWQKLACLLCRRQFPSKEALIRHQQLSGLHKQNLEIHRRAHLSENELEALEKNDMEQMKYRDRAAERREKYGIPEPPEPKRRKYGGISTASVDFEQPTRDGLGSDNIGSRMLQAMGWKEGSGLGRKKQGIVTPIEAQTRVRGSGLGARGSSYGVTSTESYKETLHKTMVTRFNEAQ

B1: recombinant full‐length GST‐tagged RORB (natural protein, UniProt Q92753-1 1-459, looked up)
chain: MRAQIEVIPCKICGDKSSGIHYGVITCEGCKGFFRRSQQNNASYSCPRQRNCLIDRTNRNRCQHCRLQKCLALGMSRDAVKFGRMSKKQRDSLYAEVQKHQQRLQEQRQQQSGEAEALARVYSSSISNGLSNLNNETSGTYANGHVIDLPKSEGYYNVDSGQPSPDQSGLDMTGIKQIKQEPIYDLTSVPNLFTYSSFNNGQLAPGITMTEIDRIAQNIIKSHLETCQYTMEELHQLAWQTHTYEEIKAYQSKSREALWQQCAIQITHAIQYVVEFAKRITGFMELCQNDQILLLKSGCLEVVLVRMCRAFNPLNNTVLFEGKYGGMQMFKALGSDDLVNEAFDFAKNLCSLQLTEEEIALFSSAVLISPDRAWLIEPRKVQKLQEKIYFALQHVIQKNHLDDETLAKLIAKIPTITAVCNLHGEKLQVFKQSHPEIVNTLFPPLYKELFNPDCATGCK
notes: The construct and its expression host are not described in the main text; They may be in the Supporting Information; source: recombinant, purified
As to B1, the binding result is “binds”.
